Results on four molecules are retold here after US20030216309A1 (UNIVERSITY OF VERMONT AND STATE AGRICULTURAL COLLEGE, published 2003).

For assay [1], the target named is T1, purified ErbB2 ECD-polyhistidine-tagged protein (human, UniProt P04626 23-653).
T1 construct: also called CBECD; purified extracellular domain of ErbB2 with a His tag; not shown: polyhistidine tag
Description: phage ELISA on coated CBECD, BSA as control. The protocol:
SfmECDAP labeled wells were plated with 250 ng of a purified ErbB2 ECD-alkaline phosphatase fusion protein; CBECD labeled wells were plated with 250 ng of a purified ErbB2 ECD-polyhistidine-tagged protein; bovine serum albumin (denoted BSA) was used as a negative target control. E12 and CB1 are peptide phage clones identified independently that display an identical (ErbB2-binding) peptide. E12CB1-NA peptide phage clones were constructed to present, with and without a glycine-glycine-alanine linker, a shortened form of the peptide. […] G78 is a peptide phage clone that binds strongly to the Grb7 SH2 domain, used here as a negative peptide phage control. Library phage also serve as a negative peptide phage control. 9G6 is an antibody to the ECD of ErbB2.

Assay [2] has as its target T2, native, intact ErbB2 extracted from the membranes of human breast cancer cells (human, UniProt P04626 23-1255).
T2 construct: Whole native receptor from cell membrane lysates, captured on plates by an antibody to the intracellular domain of ErbB2; Whole entry named; also called ErbB2 in solubilized membrane preparations / lysates of BT474 and SKBR3 cells
The assay is described as follows: phage ELISA on captured membrane lysates. As to the method:
The above identified peptide phage specifically bind to native, intact ErbB2 extracted from the membranes of human breast cancer cells that overexpress ErbB2. Plates were coated with 1 μg of an antibody that binds to the intracellular domain of ErbB2, followed by 100 μl of solubilized membrane preparations from two different breast cancer cell lines that overexpress ErbB2 (BT474 and SKBR3), and probed with CB1 peptide-phage, control library phage, and 9G6 anti-ErbB2. MCF7 cells serve as a (relative) negative target control, as MCF7 breast cancer cells express only a low level of ErbB2.
(In general: In an ELISA, binding on a coated surface is turned into a signal by an enzyme label.)

B1: 02-135 peptide phage clone (ErbB2-binding peptide 17) (peptide)
peptide: WTGWCFDDNHSTWGFCTGSF
notes: From an EC-1 biased peptide phage library; also called EBP-17
On to B1, for which the binding result in assay [1] and in assay [2] was “binds” each time.

B2: 02-140 peptide phage clone (ErbB2-binding peptide 16) (peptide)
peptide: WTGWCLNPEESTWGFCSGYI
notes: From an EC-1 biased peptide phage library; also called EBP-16
As to B2, the binding result in assay [1] and in assay [2] was “binds” throughout.

B3: 02-124 peptide phage clone (ErbB2-binding peptide 14) (peptide)
peptide: WTGWCLNPEESTWGFCRSAG
notes: From an EC-1 biased peptide phage library; also called EBP-14
B3: the binding result in assay [1] and in assay [2] was “binds” throughout.

B4: 02-137 peptide phage clone (ErbB2-binding peptide 15) (peptide)
peptide: WTGWCLSPEESTWGFCRSAG
notes: From an EC-1 biased peptide phage library; also called EBP-15
For the molecule B4, the binding result in assay [1] and in assay [2] was “binds” each time.
